Test results reported in patent publication US11697680B2, “Anti-GP73 antibodies and immunoconjugates” (CUREAB GMBH, priority 2016, dated 2023).
Where a SMILES comes first, the peptide text is derived from it. [ ]: non-standard residue; d: D form. Dolaproine = CO[C@@H]([C@@H]1CCCN1)[C@@H](C)C(=O)O; Dil = CC[C@H](C)[C@H](NC)[C@@H](CC(=O)O)OC; NMeV = CN[C@H](C(=O)O)C(C)C

How the values were obtained:
[1] = tested on: HuH7 cells; experiment: Efficacy of G2-2-ADC in HuH7 cells (cell viability, PrestoBlue); assay type: cell-based, human; details: medium changed after one hour, viability after 98 hours, read-out: IC50 as determined by drug component
Protocol: FIG. 14 An antibody drug conjugate consisting of MMAF attached to a Malamide exchange linker linked to G2-2 was added to HuH7 cells.
An antibody drug conjugate consisting of MMAF attached by a malameide exchange linker to G2-2 was added to the cell culture medium of HUH7 cells in different concentrations. Medium was changed after one hour. Cell viability was analyzed after 98 hours using PrestoBlue reagent (ThermoFischer).

[2] = target: T1, Furin cleavage of recombinant GP73-HIS (Homo sapiens, UniProt Q8NBJ4); experiment: Furin cleavage of GP73-HIS depending on antibody binding (capture ELISA); assay type: biochemical; details: 3 U and 1.5 U of Furin; 2 hours at 30° C.
T1 construct: purchased Biolegend
T1 sequence (Q8NBJ4 36-401 limits assumed): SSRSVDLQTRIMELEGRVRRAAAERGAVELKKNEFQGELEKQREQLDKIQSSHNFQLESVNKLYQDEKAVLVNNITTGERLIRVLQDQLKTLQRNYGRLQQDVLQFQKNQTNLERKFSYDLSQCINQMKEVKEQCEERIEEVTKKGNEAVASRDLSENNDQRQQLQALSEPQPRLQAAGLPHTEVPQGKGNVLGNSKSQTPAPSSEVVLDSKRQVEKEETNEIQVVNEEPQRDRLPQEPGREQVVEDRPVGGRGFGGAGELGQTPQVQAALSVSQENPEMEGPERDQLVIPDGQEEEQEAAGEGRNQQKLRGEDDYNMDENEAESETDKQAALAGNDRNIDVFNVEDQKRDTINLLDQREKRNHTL
Source text: Measurements of Furin cleavage of GP73 using a range from 0 units to 3 units of Furin are depicted.
Testing of Furin cleavage exploits the fact that antibodies G2-1 and G2-2 bind GP73 N-terminal of or at the furin cleavage site 56R whereas recombinant GP73 with C-terminal HIS tag (GP73-HIS) is detected by anti HIS antibody at the C-terminus of GP73. Plate bound anti human IgG can capture G2-1 or G2-2, which binds GP73-HIS. If furin cleavage occurs in a setting where G2-1 or G2-2 have already bound to GP73-HIS, only N-terminal part of GP73 will reside at the G2 antibodies. In contrast, if furin cleavage is hindered by G2 antibodies, GP73-HIS can be detected by an anti HIS antibody.
Furin cleavage was carried out in 1.5 ml tubes. To test if G2 antibodies can hinder furin cleavage recombinant GOLPH-HIS protein (Biolegend) and G2-2 or G2-1 was incubated for 2 hours in 100 mM HEPES and 1 mM CaCl2 buffer pH 7.5 to allow antibody binding to GP73. […]
From each reaction 2×100 ul were transferred to wells of a 96 well plate that had been coated over night with anti human IgG and was blocked with 1% gelatine in PBS. After one hour incubation at room temperature the plate was washed, incubated with anti HIS-hrp antibody for one hour, washed again, incubated with a chromogenic substrate (TMB Amersham) to detect peroxidase, stopped and read at 450 nm.

[3] = target: T2, peptide AA 36-55 of GP73 (Homo sapiens, UniProt Q8NBJ4); experiment: pH dependent peptide ELISA; assay type: binding; details: pH range of 7.4 to 5.4
Protocol: A peptide ELISA was performed to test for pH dependency of binding to peptide AA 36-55 of GP73.
(§1) ELISA was carried out in 96 well plates coated overnight with biotinylated peptide and blocked with 2% gelatine. Horse radish peroxidase labeled antibodies G2-1 (G2-1-HRP) or G2-2 (G2-2-HRP) were applied and incubated for 1.5 hours. For competition testing non labeled G2-1 or G2-2 was added at high concentration. For pH dependent binding the antibodies were applied in phosphate buffer pH 4.4, 5.4, 6.4 or 7.4. After extensive washing a chromogenic substrate (TMB Amersham) was added to detect peroxidase. The reaction was stopped and absorbance was read at 450 nm.

[4] = target: T3, GP73 peptide: […] (Homo sapiens, UniProt Q8NBJ4); experiment: Biacore surface plasmon resonance, data fit for 1:1 binding; details: Biacore 1:1 binding fit; GP73 peptide SSRSVDLQTRIMELEGRVRR
T3 construct: GP73 peptide: […]
Protocol: In one embodiment, Kd is measured using surface plasmon resonance assays using a BIACORE®-2000 or a BIACORE®-3000 (BIAcore, Inc., Piscataway, N.J.) at 25° C. with immobilized antigen CM5 chips at […] response units (RU). Briefly, carboxymethylated dextran biosensor chips (CM5, BIACORE, Inc.) are activated with N-ethyl-N′-(3-dimethylaminopropyl) carbodiimide hydrochloride (EDC) and N-hydroxysuccinimide (NHS) according to the supplier's instructions. Antigen is diluted with 10 mM sodium acetate, pH 4.8, to 5 μg/ml (−0.2 μM) before injection at a flow rate of 5 μl/minute to achieve approximately 10 response units (RU) of coupled protein. Following the injection of antigen, 1 M ethanolamine is injected to block unreacted groups. For kinetics measurements, two-fold serial dilutions of antibody (0.58 nM to 200 nM) are injected in PBS with 0.05% polysorbate 20 (TWEEN-20™) surfactant (PEST) at 25° C. at a flow rate of approximately 25 μl/min. Association rates (kon) and dissociation rates (koff) are calculated using a simple one-to-one Langmuir binding model (BIACORE® T100 Evaluation Software) by simultaneously fitting the association and dissociation sensorgrams. The equilibrium dissociation constant (Kd) is calculated as the ratio koff/kon. See, e.g., Chen et al., J. Mol. Biol. 293:865-881 (1999). If the on-rate exceeds […] s^−1 by the surface plasmon resonance assay above, then the on-rate can be determined by using a fluorescent quenching technique that measures the increase or decrease in fluorescence emission intensity (excitation=295 nm; emission=340 nm, 16 nm band-pass) at 25° C. of a 20 nM anti-antigen antibody in PBS, pH 7.2, in the presence of increasing concentrations of antigen as measured in a spectrometer, such as a stop-flow equipped spectrophometer (Aviv Instruments) or a 8000-series SLM-AMINCO™ spectrophotometer (ThermoSpectronic) with a stirred cuvette.

[5] = target: T2, peptide AA 36-55 of GP73; experiment: Competition peptide ELISA with HRP-labeled antibodies; assay type: binding; details: unlabeled competing antibody at high concentration; binding antibody G2-2-HRP
Protocol: A peptide ELISA was performed using horse radish peroxidase labeled G2-1 (G2-1-HRP) or G2-2 (G2-2-HRP) as binding antibodies and G2-1 or G2-2 as competing antibodies. […] Binding to peptide AA 36-55 of GP73 served as positive control (filled circle), negative control was binding to an unrelated peptide (filled diamond) as described in Example 5.
as §1

[6] = target: T4, GP73 AVRR (GP73 AA36 to 401, R52A) (Homo sapiens, UniProt Q8NBJ4, R52A); experiment: Protein ELISA on GP73-His AVRR; assay type: binding; details: plates coated with GP73 AVRR; absorbance 450 nm
T4 construct: contains GP73-10×His AVRR, encompassing GP73 AA36 to 401 (GP73 AVRR); made in house; host or cells: 293HEK cells, isolated from the supernatant by IMAC
T4 sequence (Q8NBJ4 with tags, fused parts or gaps R52A): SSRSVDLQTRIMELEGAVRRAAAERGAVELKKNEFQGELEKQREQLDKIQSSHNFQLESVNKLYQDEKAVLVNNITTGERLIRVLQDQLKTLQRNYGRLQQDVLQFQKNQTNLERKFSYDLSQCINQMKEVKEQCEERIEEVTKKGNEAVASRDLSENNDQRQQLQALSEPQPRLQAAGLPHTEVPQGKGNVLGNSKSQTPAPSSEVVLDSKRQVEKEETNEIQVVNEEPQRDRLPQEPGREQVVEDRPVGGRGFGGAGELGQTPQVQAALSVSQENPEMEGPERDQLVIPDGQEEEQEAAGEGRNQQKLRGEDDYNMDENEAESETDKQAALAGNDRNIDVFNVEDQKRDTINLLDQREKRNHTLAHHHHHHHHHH
Protocol: (§2) 293HEK cells were either transfected with cDNA containing full length GP73 AA 1-401 C-terminal tagged with 10×HIS-Tag or with a GP73 ΔN variant containing AA 36 to 401 with a R52A mutation, resulting in a non-cleavable variant, C-terminal tagged with 10×HIS-Tag (GP73-His AVRR). In both constructs a secretion signal was added in frame to the N-terminus. The supernatant of the full length GP73 expressing cells contains sGP73-10×His, encompassing GP73 AA56 to 401 (sGP73; SEQ ID NO: 40), that has been proteolytically cleaved by furin or another protease at AA 55. The supernatant of the GP73 ΔN variant contains GP73-10×His AVRR, encompassing GP73 AA36 to 401 (GP73 AVRR; SEQ ID NO: 41) as shown in FIG. 20. Only the latter of the two constructs contains the rGP73 epitope. Both proteins were isolated by IMAC.
(§3) ELISA was carried out in 96 well plates coated overnight with sGP73 or GP73 AVRR and blocked with 2% gelatine. Antibodies 8A10, G2-2opti (IgG2a) or isotype control antibody were applied, incubated for 1.5 hours and washed away. A secondary Horse radish peroxidase labeled anti mouse antibody was added for 1 hour and after extensive washing a chromogenic substrate (TMB Amersham) was applied to detect peroxidase.

[7] = target: T5, sGP73 (GP73 AA56 to 401) (Homo sapiens, UniProt Q8NBJ4); experiment: Protein ELISA on sGP73-His; assay type: binding; details: plates coated with sGP73; absorbance 450 nm
T5 construct: contains sGP73-10×His, encompassing GP73 AA56 to 401 (sGP73); made in house; host or cells: 293HEK cells, isolated from the supernatant by IMAC
T5 sequence (Q8NBJ4 with tags, fused parts or gaps): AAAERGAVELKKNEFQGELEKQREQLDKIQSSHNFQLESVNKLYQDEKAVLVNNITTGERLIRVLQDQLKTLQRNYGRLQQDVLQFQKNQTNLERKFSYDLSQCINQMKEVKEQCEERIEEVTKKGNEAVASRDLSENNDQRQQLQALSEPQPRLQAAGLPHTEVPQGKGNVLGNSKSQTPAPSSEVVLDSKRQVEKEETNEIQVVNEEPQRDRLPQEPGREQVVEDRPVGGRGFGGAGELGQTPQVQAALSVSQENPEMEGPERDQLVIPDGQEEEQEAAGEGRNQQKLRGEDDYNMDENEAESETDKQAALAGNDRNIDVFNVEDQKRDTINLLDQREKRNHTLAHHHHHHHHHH
Protocol: as §2, §3

`CC[C@H](C)[C@@H]([C@@H](CC(=O)N1CCC[C@H]1[C@H](OC)[C@@H](C)C(=O)N[C@@H](Cc1ccccc1)C(=O)O)OC)N(C)C(=O)[C@@H](NC(=O)[C@@H](NC)C(C)C)C(C)C` [MMAF, monomethylauristatin F] (H-[NMeV]V[Dil][Dolaproine]F-OH) gave an IC50 [1] of 277 nM.

B1: G2-1: scFv clone with human IgG1 heavy and human Igk light constant regions; VH/VL SEQ ID NO: 10 and 11; binds rGP73 (antibody, V domains shown)
VH: EVQLLESGGGVVQPGRSLRLSCAASGFTFSSYAMSWVRQAPGKGLEWVSVISYDGSNKAYADSVKGRFTISRDNSKNTLYLQMNSLRAEDTAVYYCARGRSYYDSSGYLFDYWGQGTLVTVSS
VL: DIQMTQPHSVSESVGKTVIITCTGGGGSIDTNYVQWYQQRPGSAPVTLIYEDDQRPFGVPDRFSAAIDTSSSSASLTISGLTAEDEATYYCQSSHSTAVVFGGGTKVEIK
modifications: human IgG1 and Igk constant regions not cited; G2-1 heavy chain variable region (VH); G2-1 light chain variable region (VL)
In the case of B1, the “Furin cleavage of GP73 after preincubation with antibody” value [2] is reported as “significant reduction in Furin cleavage”, the “pH dependency of binding to peptide AA 36-55 of GP73” value [3] is reported as “Stable binding” and the “koff, measurement 1 + 2 mean” value [4] is reported as 0.001981 s⁻¹. The “kon, measurement 1 + 2 mean” value [4] was 635200 M⁻¹ s⁻¹ and the “competition with G2-2-HRP for peptide binding” value [5] was “Competitive inhibition”.

B2: G2-2opti (IgG2a): chimeric human/murine version of G2-2opti with murine constant domains (antibody, V domains shown)
VH: QVQLVQSGGGVVQPGRSLRLSCAASGFTFSSYGMHWVRQAPGKGLEWVAVISYDGSNKYYADSVKGRFTISRDNSKNTLYLQMNSLRAEDTAVYYCAREGSAGMDVWGQGTTVTVSS
VL: QAVLTQPSSLSASPGASASLTCTLRSDISVGFHRIYWYQQKPGSPPQYLLRYKSDSDKQQGSGVPSRFSGSKDASANAGILLISGLQSDDEADYYCVIWHTSGVVFGGGTKLTVL
With B2 the “binding to GP73 AVRR (ELISA)” value [6] was “binds to GP73 AVRR” and the “binding to sGP73 (ELISA)” value [7] was “not to sGP73”.
